Article PMC5674885 (The Journal of Cell Biology, 2017)

Target: T1, kindlin-2 (recombinant, full length, amino acids 1–680) (mouse, UniProt Q8CIB5 1-680)
T1 sequence (looked up): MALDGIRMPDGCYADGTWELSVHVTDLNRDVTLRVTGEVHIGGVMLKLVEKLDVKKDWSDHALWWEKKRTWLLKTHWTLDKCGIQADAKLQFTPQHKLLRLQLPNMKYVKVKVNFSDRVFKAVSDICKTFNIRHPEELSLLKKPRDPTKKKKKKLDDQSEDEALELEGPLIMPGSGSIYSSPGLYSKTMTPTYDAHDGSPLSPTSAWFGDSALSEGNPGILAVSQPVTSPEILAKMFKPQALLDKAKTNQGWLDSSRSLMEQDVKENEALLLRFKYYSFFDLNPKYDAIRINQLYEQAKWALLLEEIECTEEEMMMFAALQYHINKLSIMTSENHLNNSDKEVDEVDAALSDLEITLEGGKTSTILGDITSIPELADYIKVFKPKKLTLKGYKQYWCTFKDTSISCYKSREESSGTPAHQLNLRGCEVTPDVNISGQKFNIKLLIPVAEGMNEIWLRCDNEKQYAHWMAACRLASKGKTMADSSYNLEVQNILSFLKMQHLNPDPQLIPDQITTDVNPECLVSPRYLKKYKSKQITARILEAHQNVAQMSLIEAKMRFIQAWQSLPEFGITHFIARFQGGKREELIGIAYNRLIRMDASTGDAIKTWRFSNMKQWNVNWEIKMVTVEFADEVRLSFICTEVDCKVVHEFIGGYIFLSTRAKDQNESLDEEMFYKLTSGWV
Test: ITC

B1: paxillin (recombinant, full length, amino acids 1–557) (natural protein)
chain: not shown
modifications: Atto520 label (NHS ester) in the ultracentrifugation of Fig. 1 B only
**Q.** How did the Kd turn out when B1 was run?
**A.** The Kd was 0.205 ± 0.059 µM.
